Laboratory results reported in publication PMC7491322, “Molecular basis for the distinct cellular functions of the Lsm1–7 and Lsm2–8 complexes”.

Legend:
Lsm1-7 [1] = target: T1, Lsm1-7 (Schizosaccharomyces pombe, UniProt P87173;O94408;Q9Y7M4;O14352;O42978;Q9UUI1;O74499 …); experiment: fluorescence polarization; FP: 100 mM NaCl, 20 mM Tris pH 8.2 (final ~8), 10 mM MgCl2, 1 mM TCEP, 1 mM Na azide, 0.1 mg/mL each tRNA, BSA and heparin; temperature not stated; 1 nM RNA final; Hill fixed at 1; conditions: protein: recombinant, tags: Lsm4 C-term strep-II (as for Lsm2-8), Lsm7 untagged, GST (Lsm3) and MBP (Lsm6) with TEV sites, TEV treated, copies: 1;1;1;1;1;1;1, label: 5'-FAM
Lsm1Δ56C-7 [2] = target: T2, Lsm1Δ56C-7 (Schizosaccharomyces pombe, UniProt P87173;O94408;Q9Y7M4;O14352;O42978;Q9UUI1;O74499 …); experiment: as above; conditions: protein: recombinant, tags: as P2, copies: 1;1;1;1;1;1;1, label: 5'-FAM
Lsm1Δ56C-7 [3] = target: T2, Lsm1Δ56C-7; experiment: X-ray crystallography; 1.8 Å; FP: 100 mM NaCl, 20 mM Tris pH 8.2 (final ~8), 10 mM MgCl2, 1 mM TCEP, 1 mM Na azide, 0.1 mg/mL each tRNA, BSA and heparin; temperature not stated; 1 nM RNA final; Hill fixed at 1; conditions: protein: recombinant; tags: as P2; copies: 1;1;1;1;1;1;1; single-stranded
Lsm2-8 [4] = target: T3, Lsm2-8 (Schizosaccharomyces pombe, UniProt O94408;Q9Y7M4;O14352;O42978;Q9UUI1;O74499;O74483 …); experiment: fluorescence polarization; FP: 100 mM NaCl, 20 mM Tris pH 8.2 (final ~8), 10 mM MgCl2, 1 mM TCEP, 1 mM Na azide, 0.1 mg/mL each tRNA, BSA and heparin; temperature not stated; 1 nM RNA final; Hill fixed at 1; conditions: protein: recombinant; tags: Lsm4 C-term strep-II; Lsm7 C-term His6; GST (Lsm3) and MBP (Lsm6) with TEV sites, TEV treated; copies: 1;1;1;1;1;1;1; label: 5'-FAM; single-stranded
Lsm1-7 [5] = target: T1, Lsm1-7; experiment: as above; conditions: protein: recombinant; tags: Lsm4 C-term strep-II (as for Lsm2-8); Lsm7 untagged; GST (Lsm3) and MBP (Lsm6) with TEV sites, TEV treated; copies: 1;1;1;1;1;1;1; label: 5'-FAM; single-stranded
Lsm1-7 (Lsm5 N66A/N68A) = Lsm1-7 (Lsm5 N66A/N68A) (Schizosaccharomyces pombe, UniProt P87173;O94408;Q9Y7M4;O14352;O42978;Q9UUI1;O74499 …, N66A;N68A;Lsm5); experiment: as above; conditions: protein: recombinant; tags: as P2; copies: 1;1;1;1;1;1;1; label: 5'-FAM; single-stranded
Lsm1Δ56C-7 [6] = target: T2, Lsm1Δ56C-7; experiment: X-ray crystallography; 2.1 Å; FP: 100 mM NaCl, 20 mM Tris pH 8.2 (final ~8), 10 mM MgCl2, 1 mM TCEP, 1 mM Na azide, 0.1 mg/mL each tRNA, BSA and heparin; temperature not stated; 1 nM RNA final; Hill fixed at 1; conditions: protein: recombinant; tags: as P2; copies: 1;1;1;1;1;1;1; single-stranded
Lsm2-8 [7] = target: T3, Lsm2-8; experiment: X-ray crystallography; 2.3 Å; FP: 100 mM NaCl, 20 mM Tris pH 8.2 (final ~8), 10 mM MgCl2, 1 mM TCEP, 1 mM Na azide, 0.1 mg/mL each tRNA, BSA and heparin; temperature not stated; 1 nM RNA final; Hill fixed at 1; conditions: protein: recombinant; tags: Lsm4 C-term strep-II; Lsm7 C-term His6; GST (Lsm3) and MBP (Lsm6) with TEV sites, TEV treated; copies: 1;1;1;1;1;1;1; single-stranded
Lsm2-8 [8] = target: T3, Lsm2-8; experiment: X-ray crystallography; 1.9 Å; FP: 100 mM NaCl, 20 mM Tris pH 8.2 (final ~8), 10 mM MgCl2, 1 mM TCEP, 1 mM Na azide, 0.1 mg/mL each tRNA, BSA and heparin; temperature not stated; 1 nM RNA final; Hill fixed at 1; conditions: protein: recombinant; tags: Lsm4 C-term strep-II; Lsm7 C-term His6; GST (Lsm3) and MBP (Lsm6) with TEV sites, TEV treated; copies: 1;1;1;1;1;1;1; single-stranded
[9] = 5' hairpin, single-stranded 3' end

B1: CCCCCUUUUUA (ssRNA)
RNA: CCCCCUUUUUA
- Kd (Lsm1-7 [1]; single-stranded): 29.7 nM
- Kd (Lsm1Δ56C-7 [2]; single-stranded): 13 nM

B2: U14A (ssRNA)
RNA: UUUUUUUUUUUUUUA
- binding result (Lsm1-7 [1]; single-stranded): binds

B3: U15 (ssRNA)
RNA: UUUUUUUUUUUUUUU
- binding result (Lsm1-7 [1]; single-stranded): binds

B4: 5' stem-loop RNA with UUUUA site (structured_RNA)
RNA: GGCACUUCGGUGCCCCCCAUUUUA
- Kd (Lsm1-7 [1]; [9]): 70 nM
- Kd (Lsm1Δ56C-7 [2]; [9]): 32 nM

B5: UUUUUA (ssRNA)
RNA: UUUUUA
- binding result (Lsm1Δ56C-7 [3]): binds

B6: U6 3' tail, 3' phosphate (ssRNA)
RNA: ACCCAUUUUU
modifications: 3' phosphate
- Kd (Lsm2-8 [4]): 152 nM

B7: U6 3' tail, 2',3' cyclic phosphate (ssRNA)
RNA: ACCCAUUUUU
modifications: 2',3' cyclic phosphate
- Kd (Lsm2-8 [4]): 26 nM

B8: U6 3' tail, 3'-OH (ssRNA)
RNA: ACCCAUUUUU
- Kd (Lsm2-8 [4]): 100 nM

B9: 3' monoadenylated oligoU RNA (ssRNA)
RNA: ACCCAUUUUUA
- binding result (Lsm2-8 [4]): binds

B10: cyclic phosphate oligoU RNA (Lsm1-7 assays) (ssRNA)
RNA: ACCCAUUUUU
modifications: 2',3' cyclic phosphate
- binding signal (Lsm1-7 [5]): ~14 fold weaker than N4
- binding signal (Lsm1-7 (Lsm5 N66A/N68A)): ~7 fold weaker than adenosine-terminated RNA

B11: U13AA (ssRNA)
RNA: UUUUUUUUUUUUUAA
- binding result (Lsm1-7 [1]; single-stranded): binds

B12: AUUUUG (ssRNA)
RNA: AUUUUG
- binding result (Lsm1Δ56C-7 [6]): binds

B13: UUUUU>p (ssRNA)
RNA: UUUUU
modifications: 2',3' cyclic phosphate
- binding result (Lsm2-8 [7]): binds

B14: UUUUUACCCCC (ssRNA)
RNA: UUUUUACCCCC
- Kd (Lsm1-7 [1]; single-stranded): 189 nM
- Kd (Lsm1Δ56C-7 [2]; single-stranded): 34 nM

B15: UUUUU-3'-OH (ssRNA)
RNA: UUUUU
- binding result (Lsm2-8 [8]): binds

B16: A15 (ssRNA)
RNA: AAAAAAAAAAAAAAA
- binding result (Lsm1Δ56C-7 [2]; single-stranded): no binding
